Assay results as given in paper PMC4972137 (The EMBO Journal, 2016).

B1: NavMs sodium channel pore protein (wild-type pore of NavMs from M. marinus MC-1 with its complete C-terminal domain) (domain or fragment, Magnetococcus marinus MC-1)
chain: GVGSVAALLTVVFYIAAVMATNLYGATFPEWFGDLSKSLYTLFQVMTLESWSMGIVRPVMNVHPNAWVFFIPFIMLTTFTVLNLFIGIIVDAMAITKEQEEEAKTGHHQEPISQTLLHLGDRLDRIEKQLAQNNELLQRQQPQKK
B2: NavMs sodium channel pore protein, E178D selectivity filter mutant (domain or fragment, Magnetococcus marinus MC-1)
chain: GVGSVAALLTVVFYIAAVMATNLYGATFPEWFGDLSKSLYTLFQVMTLDSWSMGIVRPVMNVHPNAWVFFIPFIMLTTFTVLNLFIGIIVDAMAITKEQEEEAKTGHHQEPISQTLLHLGDRLDRIEKQLAQNNELLQRQQPQKK

Target: the molecule itself
Assay: crystal structure; NavMs pore crystals grown in the presence of sodium ions; open conformation; four identical chains arranged in two half-tetramers, with the tetramers completed by crystal symmetry

Row | Protein | stoichiometry N
1 | B1 | 4
2 | B2 | 4
